# According to publication PMC4046702 (Journal of inorganic biochemistry, 2013):
# Molecular target: HIF prolyl-4-hydroxylase 2 (PHD2), residues 178-426 (human, UniProt Q9GZT9 178-426)
# Assay: cell-based or functional assay
# HIF prolyl-4-hydroxylase 2 (PHD2), residues 178-426, sequence (Q9GZT9 178-426): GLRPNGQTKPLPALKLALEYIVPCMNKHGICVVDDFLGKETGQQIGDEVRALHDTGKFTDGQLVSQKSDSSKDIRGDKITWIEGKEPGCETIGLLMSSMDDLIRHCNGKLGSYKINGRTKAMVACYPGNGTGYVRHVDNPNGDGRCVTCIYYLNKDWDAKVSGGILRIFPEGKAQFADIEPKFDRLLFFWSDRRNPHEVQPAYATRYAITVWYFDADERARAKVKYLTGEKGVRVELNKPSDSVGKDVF
"kcat/KM of NODD hydroxylation by PHD2 (steady-state, MALDI-TOF), 0 NaCl","kcat/KM of NODD hydroxylation by PHD2 (steady-state, MALDI-TOF), + 100 mM NaCl","kcat/KM of CODD hydroxylation by PHD2 (steady-state, MALDI-TOF), 0 mM NaCl","kcat/KM of CODD hydroxylation by PHD2 (steady-state, MALDI-TOF), + 100 mM NaCl",Binder
667 M⁻¹ s⁻¹,833 M⁻¹ s⁻¹,–,–,"DALTLLAPAAGDTIISLDYG [NODD peptide, HIF-1α 395-414 (F413Y)]"
–,–,16700 M⁻¹ s⁻¹,5000 M⁻¹ s⁻¹,"DLDLEALAPYIPADDDFQL [CODD peptide, HIF-1α 556-574 (M561A, M568A)]"
